Measurements as given in patent US20240383984A1 (Genentech, published 2024).

Assays:
[1] = target: T1, human FcRH2 (full-length, on SVT2 cells) (human, UniProt Q96LA5 20-508); test: flow cytometry on SVT2-FcRH2 cells, PE-labelled secondary
T1 construct: whole, on cells; also called SVT2-FcRH2
T1 sequence (looked up): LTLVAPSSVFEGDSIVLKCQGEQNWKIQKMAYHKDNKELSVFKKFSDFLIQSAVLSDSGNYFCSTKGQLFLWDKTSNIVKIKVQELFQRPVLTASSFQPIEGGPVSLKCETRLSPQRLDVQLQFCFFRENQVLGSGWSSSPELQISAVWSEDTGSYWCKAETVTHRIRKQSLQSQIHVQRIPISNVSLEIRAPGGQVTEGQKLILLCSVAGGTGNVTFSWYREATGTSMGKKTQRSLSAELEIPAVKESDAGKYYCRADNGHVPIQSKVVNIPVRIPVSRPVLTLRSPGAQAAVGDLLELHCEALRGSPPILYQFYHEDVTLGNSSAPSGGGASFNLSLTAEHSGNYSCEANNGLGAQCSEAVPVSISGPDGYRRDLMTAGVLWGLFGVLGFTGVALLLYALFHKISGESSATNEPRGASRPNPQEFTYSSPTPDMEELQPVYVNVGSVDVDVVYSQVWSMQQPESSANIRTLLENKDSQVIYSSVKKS
Experimental: Human FcRH5, cyno FcRH5, human FcRH1, FcRH2, FcRH3, and FcRH4 transfected mouse SVT2 cells were used to test binding and cross-reactivity of FcRH5 TDBs. The method was carried out as follows. Cultured SVT2 cells were lifted using non-enzyme cell dissociation buffer (Sigma, #C5914). 1×10⁵ cells were suspended in 100 μL and incubated with FcRH5 TDBs at 3 μg/ml. […] Cells were washed twice with FACS buffer before flow cytometry analysis was carried out on a FACSCalibur.

[2] = target: T2, human FcRH5 (full-length, on cells) (human, UniProt Q96RD9 16-977); test: cell-based or functional assay
T2 sequence: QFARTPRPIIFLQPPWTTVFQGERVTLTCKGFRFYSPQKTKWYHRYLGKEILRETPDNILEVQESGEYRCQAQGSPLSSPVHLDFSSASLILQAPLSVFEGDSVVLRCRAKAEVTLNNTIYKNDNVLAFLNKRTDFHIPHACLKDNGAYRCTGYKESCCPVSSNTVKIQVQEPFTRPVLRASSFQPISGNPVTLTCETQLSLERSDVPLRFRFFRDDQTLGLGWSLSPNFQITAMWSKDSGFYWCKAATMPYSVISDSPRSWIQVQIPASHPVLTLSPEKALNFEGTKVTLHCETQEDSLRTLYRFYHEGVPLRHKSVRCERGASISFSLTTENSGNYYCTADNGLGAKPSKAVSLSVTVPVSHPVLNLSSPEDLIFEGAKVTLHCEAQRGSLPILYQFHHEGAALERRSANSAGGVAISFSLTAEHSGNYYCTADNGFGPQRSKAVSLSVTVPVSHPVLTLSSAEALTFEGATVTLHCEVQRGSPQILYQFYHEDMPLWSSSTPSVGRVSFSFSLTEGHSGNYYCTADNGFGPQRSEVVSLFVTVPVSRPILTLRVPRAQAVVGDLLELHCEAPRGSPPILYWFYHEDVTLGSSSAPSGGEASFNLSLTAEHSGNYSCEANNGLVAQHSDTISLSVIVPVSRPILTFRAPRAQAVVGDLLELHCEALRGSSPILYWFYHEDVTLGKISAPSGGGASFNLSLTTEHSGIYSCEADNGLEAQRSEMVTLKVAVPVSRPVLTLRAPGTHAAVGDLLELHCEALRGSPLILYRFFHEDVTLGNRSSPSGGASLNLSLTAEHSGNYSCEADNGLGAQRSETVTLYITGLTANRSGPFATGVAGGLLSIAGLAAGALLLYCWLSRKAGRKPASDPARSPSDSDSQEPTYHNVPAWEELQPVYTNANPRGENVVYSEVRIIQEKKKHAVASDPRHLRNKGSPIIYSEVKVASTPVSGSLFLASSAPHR

293-FcRH5-DEL = target: T3, 293-FcRH5-DEL (human, UniProt Q96RD9); test: flow cytometry on 293 cells with domain 9-deleted FcRH5, PE-labelled secondary
T3 construct: domain 9 deletion, expressed on 293 cells
T3 sequence (receptor, looked up): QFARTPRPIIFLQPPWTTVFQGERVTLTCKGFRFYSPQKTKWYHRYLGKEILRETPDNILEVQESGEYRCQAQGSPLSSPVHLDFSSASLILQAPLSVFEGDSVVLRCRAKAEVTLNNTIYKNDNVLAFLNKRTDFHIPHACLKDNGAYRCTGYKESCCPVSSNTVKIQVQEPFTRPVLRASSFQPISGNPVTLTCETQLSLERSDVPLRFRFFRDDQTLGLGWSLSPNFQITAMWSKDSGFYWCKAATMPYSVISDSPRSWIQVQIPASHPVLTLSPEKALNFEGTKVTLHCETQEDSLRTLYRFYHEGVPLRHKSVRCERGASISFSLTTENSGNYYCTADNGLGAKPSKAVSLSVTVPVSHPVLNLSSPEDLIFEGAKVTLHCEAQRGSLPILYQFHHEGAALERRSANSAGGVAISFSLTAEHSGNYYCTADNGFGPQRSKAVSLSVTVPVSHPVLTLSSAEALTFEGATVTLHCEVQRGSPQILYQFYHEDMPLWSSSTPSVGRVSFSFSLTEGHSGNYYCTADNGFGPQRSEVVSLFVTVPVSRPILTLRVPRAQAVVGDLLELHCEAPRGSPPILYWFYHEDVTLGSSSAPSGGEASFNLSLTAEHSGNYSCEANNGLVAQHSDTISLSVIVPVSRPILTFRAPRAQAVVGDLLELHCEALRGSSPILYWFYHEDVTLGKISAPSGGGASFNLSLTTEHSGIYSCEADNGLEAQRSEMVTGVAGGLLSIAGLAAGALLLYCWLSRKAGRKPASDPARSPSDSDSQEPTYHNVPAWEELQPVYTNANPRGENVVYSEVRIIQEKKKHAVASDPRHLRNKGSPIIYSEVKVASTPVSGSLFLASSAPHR

binding result [1]: no binding
binding result (293-FcRH5-DEL): no binding
B1: 1G7.v85/38E4.v1 TDB (bispecific antibody, V domains shown)
VH 1: EVQLVESGPGLVKPSETLSLTCTVSGFSLTRFGVHWVRQPPGKGLEWLGVIWRGGSTDYNAAFVSRLTISKDNSKNQVSLKLSSVTAADTAVYYCSNHYYGSSDYALDNWGQGTLVTVSS
VL 1: DIQMTQSPSSLSASVGDRVTITCKASQDVRNLVVWFQQKPGKAPKLLIYSGSYRYSGVPSRFSGSGSGTDFTLTISSLQPEDFATYYCQQHYSPPYTFGQGTKVEIK
VH 2: EVQLVQSGAEVKKPGASVKVSCKASGFTFTSYYIHWVRQAPGQGLEWIGWIYPENDNTKYNEKFKDRVTITADTSTSTAYLELSSLRSEDTAVYYCARDGYSRYYFDYWGQGTLVTVSS
VL 2: DIVMTQSPDSLAVSLGERATINCKSSQSLLNSRTRKNYLAWYQQKPGQSPKLLIYWTSTRKSGVPDRFSGSGSGTDFTLTISSLQAEDVAVYYCKQSFILRTFGQGTKVEIK
notes: knob-into-hole TDB; also called 1G7.v85 TDB; 1G7.v85 (TDB format)
killing of 293-FcRH5-PD-L1 cells by primed CD8+ cells, TDB alone, EC50 [2]: 0.63 ng/mL
killing of 293-FcRH5-PD-L1 cells, with anti-PD-1 antibody (pembrolizumab), EC50 [2]: 0.4 ng/mL
killing of 293-FcRH5-PD-L1 cells, with anti-PD-L1 antibody, EC50 [2]: 0.4 ng/mL
killing of MOLP-2 cells, EC50 [2]: 0.058 nM
killing of SVT2-FcRH5 cells in DMSO, IC50 [2]: 0.006 nM
killing of SVT2-FcRH5 cells in buffer, IC50 [2]: 0.007 nM
killing of SVT2-FcRH5 cells with 0.1 µM Dex, IC50 [2]: 0.016 nM
killing of plasma cells (PCs), median EC50 [2]: 25 ng/mL
